The source of these data is paper PMC11130540, “Does Acinetobacter calcoaceticus glucose dehydrogenase produce self-damaging H2O2?” (Bioscience Reports, 2024).

First the molecules themselves.
B1: soluble glucose dehydrogenase (sGDH) from Acinetobacter calcoaceticus, wild-type, holo form (enzyme, UniProt P13650 25-478, looked up)
chain: DVPLTPSQFAKAKSENFDKKVILSNLNKPHALLWGPDNQIWLTERATGKILRVNPESGSVKTVFQVPEIVNDADGQNGLLGFAFHPDFKNNPYIYISGTFKNPKSTDKELPNQTIIRRYTYNKSTDTLEKPVDLLAGLPSSKDHQSGRLVIGPDQKIYYTIGDQGRNQLAYLFLPNQAQHTPTQQELNGKDYHTYMGKVLRLNLDGSIPKDNPSFNGVVSHIYTLGHRNPQGLAFTPNGKLLQSEQGPNSDDEINLIVKGGNYGWPNVAGYKDDSGYAYANYSAAANKSIKDLAQNGVKVAAGVPVTKESEWTGKNFVPPLKTLYTVQDTYNYNDPTCGEMTYICWPTVAPSSAYVYKGGKKAITGWENTLLVPSLKRGVIFRIKLDPTYSTTYDDAVPMFKSNNRYRDVIASPDGNVLYVLTDTAGNVQKDDGSVTNTLENPGSLIKFTYKAK
notes: soluble glucose dehydrogenase (sGDH) of Acinetobacter calcoaceticus, UniProt P13650; native open reading frame on plasmid pGP492; printed number + 24 in P13650; Holo enzyme with the prosthetic group PQQ (found cleaved in the crystals) and calcium ions; No tag is named; also called sGDH WT; WT
B2: soluble glucose dehydrogenase (sGDH) from Acinetobacter calcoaceticus, D143E/Y343F mutant, holo form (enzyme)
chain: DVPLTPSQFAKAKSENFDKKVILSNLNKPHALLWGPDNQIWLTERATGKILRVNPESGSVKTVFQVPEIVNDADGQNGLLGFAFHPDFKNNPYIYISGTFKNPKSTDKELPNQTIIRRYTYNKSTDTLEKPVDLLAGLPSSKEHQSGRLVIGPDQKIYYTIGDQGRNQLAYLFLPNQAQHTPTQQELNGKDYHTYMGKVLRLNLDGSIPKDNPSFNGVVSHIYTLGHRNPQGLAFTPNGKLLQSEQGPNSDDEINLIVKGGNYGWPNVAGYKDDSGYAYANYSAAANKSIKDLAQNGVKVAAGVPVTKESEWTGKNFVPPLKTLYTVQDTYNYNDPTCGEMTFICWPTVAPSSAYVYKGGKKAITGWENTLLVPSLKRGVIFRIKLDPTYSTTYDDAVPMFKSNNRYRDVIASPDGNVLYVLTDTAGNVQKDDGSVTNTLENPGSLIKFTYKAK
notes: soluble glucose dehydrogenase (sGDH) of Acinetobacter calcoaceticus, UniProt P13650, with D143E and Y343F; Holo enzyme with PQQ (found cleaved in the crystals) and calcium ions; No tag is named; also called sGDH D143E/Y343F; Y343F/D143E
B3: soluble glucose dehydrogenase (sGDH) from Acinetobacter calcoaceticus, Y343F mutant, holo form (enzyme)
chain: DVPLTPSQFAKAKSENFDKKVILSNLNKPHALLWGPDNQIWLTERATGKILRVNPESGSVKTVFQVPEIVNDADGQNGLLGFAFHPDFKNNPYIYISGTFKNPKSTDKELPNQTIIRRYTYNKSTDTLEKPVDLLAGLPSSKDHQSGRLVIGPDQKIYYTIGDQGRNQLAYLFLPNQAQHTPTQQELNGKDYHTYMGKVLRLNLDGSIPKDNPSFNGVVSHIYTLGHRNPQGLAFTPNGKLLQSEQGPNSDDEINLIVKGGNYGWPNVAGYKDDSGYAYANYSAAANKSIKDLAQNGVKVAAGVPVTKESEWTGKNFVPPLKTLYTVQDTYNYNDPTCGEMTFICWPTVAPSSAYVYKGGKKAITGWENTLLVPSLKRGVIFRIKLDPTYSTTYDDAVPMFKSNNRYRDVIASPDGNVLYVLTDTAGNVQKDDGSVTNTLENPGSLIKFTYKAK
notes: soluble glucose dehydrogenase (sGDH) of Acinetobacter calcoaceticus, UniProt P13650, with Y343F; Holo enzyme with PQQ (found cleaved in the crystals) and calcium ions; No tag is named; also called sGDH Y343F; single mutant

This data set deals with the molecule itself. The experiment in a line: crystal structure; holo-sGDH (around 10 mg/ml) reconstituted with PQQ before crystallization; hanging drop vapor diffusion at 20°C, 20% (w/v) PEG 6000, 100 mM TRIS pH 8.0, with 2 mM zinc chloride (wild-type) or 200 mM lithium chloride (mutants); two monomers in the asymmetric unit.
The stoichiometry N is a count of units in the complex or per binding partner. For the protein B1, the “stoichiometry N” value was 2.
The result for B2 reads 2; that for B3, 2.
